Measured values taken from PMC11574045, “A cofactor-induced repressive type of transcription factor condensation can be induced by synthetic peptides to suppress tumorigenesis” (The EMBO Journal, 2024).

System: HEK293FT cells transfected with TF library
Assay: Screening of TF condensates based on fluorescent puncta
Type: cell-based
Conditions: Figure 1B numerical data; TF library screen, one value per transcriptional factor
Method in brief: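 Condensate formation is scored as Alexa 488-labelled puncta after Flag- or GAL4-tag immunostaining of fixed HEK293FT cells expressing individual TFs, with a 12 h glucose-free or glucose-containing culture preceding fixation.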

B1: BIF1 (protein, UniProt Q9Y371 1-365, looked up)
Endophilin-B1: MNIMDFNVKKLAADAGTFLSRAVQFTEEKLGQAEKTELDAHLENLLSKAECTKIWTEKIMKQTEVLLQPNPNARIEEFVYEKLDRKAPSRINNPELLGQYMIDAGTEFGPGTAYGNALIKCGETQKRIGTADRELIQTSALNFLTPLRNFIEGDYKTIAKERKLLQNKRLDLDAAKTRLKKAKAAETRNSSEQELRITQSEFDRQAEITRLLLEGISSTHAHHLRCLNDFVEAQMTYYAQCYQYMLDLQKQLGSFPSNYLSNNNQTSVTPVPSVLPNAIGSSAMASTSGLVITSPSNLSDLKECSGSRKARVLYDYDAANSTELSLLADEVITVFSVVGMDSDWLMGERGNQKGKVPITYLELLN
With B1 the “Z score of condensed fraction” value was -0.08025.

B2: TBX19 (protein, UniProt Q99ME7 1-446, looked up)
T-box transcription factor …: MSELATQKAGEGTVSRLLNVVESELQAGREKGDPTEKQLQIILEDAPLWQRFKEVTNEMIVTKNGRRMFPVLKISVTGLDPNAMYSLLLDFVRTDSHRWKYVNGEWVPAGKPEVSSHSCVYIHPDSPNFGAHWMKAPISFSKVKLTNKLNGGGQIMLNSLHKYEPQVHIVRVGGAHRMVMNCSFPETQFIAVTAYQNEEITALKIKYNPFAKAFLDAKERNHLKDVPEAISESQHVTYSHLGGWILSNPDGVCTAANSNYQYATPLPLPAPHTHHGCEHYAGLRGHRQAPYPSAYMHRNHSPSVNLIESSSNNLQVFSGPDSWTSLSSTPHASILSVPHSNGPINPGPSPYPCLWTISNGGGGPVASGSEVHASTSGTILLGNPAVTSPSSLLPTQATTSAGVEVLGEPSLTSIAVSTWTAVASHPLPGWGGPGGAGRHSSSSLDS
B2 was tested, and the “Z score of condensed fraction” value was 1.015.

B3: TBX20 (protein, UniProt Q9UMR3 1-447, looked up)
T-box transcription factor …: MEFTASPKPQLSSRANAFSIAALMSSGGSKEKEATENTIKPLEQFVEKSSCAQPLGELTSLDAHGEFGGGSGSSPSSSSLCTEPLIPTTPIIPSEEMAKIACSLETKELWDKFHELGTEMIITKSGRRMFPTIRVSFSGVDPEAKYIVLMDIVPVDNKRYRYAYHRSSWLVAGKADPPLPARLYVHPDSPFTGEQLLKQMVSFEKVKLTNNELDQHGHIILNSMHKYQPRVHIIKKKDHTASLLNLKSEEFRTFIFPETVFTAVTAYQNQLITKLKIDSNPFAKGFRDSSRLTDIERESVESLIQKHSYARSPIRTYGGEEDVLGDESQTTPNRGSAFTTSDNLSLSSWVSSSSSFPGFQHPQSLTALGTSTASIATPIPHPIQGSLPPYSRLGMPLTPSAIASSMQGSGPTFPSFHMPRYHHYFQQGPYAAIQGLRHSSAVMTPFV
B3 was tested, and the “Z score of condensed fraction” value was 0.6837.

B4: TBR1 (protein, UniProt Q16650 1-682, looked up)
T-box brain protein 1: MQLEHCLSPSIMLSKKFLNVSSSYPHSGGSELVLHDHPIISTTDNLERSSPLKKITRGMTNQSDTDNFPDSKDSPGDVQRSKLSPVLDGVSELRHSFDGSAADRYLLSQSSQPQSAATAPSAMFPYPGQHGPAHPAFSIGSPSRYMAHHPVITNGAYNSLLSNSSPQGYPTAGYPYPQQYGHSYQGAPFYQFSSTQPGLVPGKAQVYLCNRPLWLKFHRHQTEMIITKQGRRMFPFLSFNISGLDPTAHYNIFVDVILADPNHWRFQGGKWVPCGKADTNVQGNRVYMHPDSPNTGAHWMRQEISFGKLKLTNNKGASNNNGQMVVLQSLHKYQPRLHVVEVNEDGTEDTSQPGRVQTFTFPETQFIAVTAYQNTDITQLKIDHNPFAKGFRDNYDTIYTGCDMDRLTPSPNDSPRSQIVPGARYAMAGSFLQDQFVSNYAKARFHPGAGAGPGPGTDRSVPHTNGLLSPQQAEDPGAPSPQRWFVTPANNRLDFAASAYDTATDFAGNAATLLSYAAAGVKALPLQAAGCTGRPLGYYADPSGWGARSPPQYCGTKSGSVLPCWPNSAAAAARMAGANPYLGEEAEGLAAERSPLPPGAAEDAKPKDLSDSSWIETPSSIKSIDSSDSGIYEQAKRRRISPADTPVSESSSPLKSEVLAQRDCEKNCAKDISGYYGFYSHS
B4 was tested, and the “Z score of condensed fraction” value was -0.7739.
